Earlier results in US20220280439A1, “METHODS FOR LOWERING THE INFECTION RATE OF VIRUSES” (Finncure Oy, priority 2020, published 2022).

Biological target: ACE2 (Homo sapiens, UniProt Q9BYF1)
Details: simulation, ref [8]; for binding affinity towards the ACE2 receptor: compared with hexapeptide YKYRYL

Chain of ACE2 (Q9BYF1 18-805): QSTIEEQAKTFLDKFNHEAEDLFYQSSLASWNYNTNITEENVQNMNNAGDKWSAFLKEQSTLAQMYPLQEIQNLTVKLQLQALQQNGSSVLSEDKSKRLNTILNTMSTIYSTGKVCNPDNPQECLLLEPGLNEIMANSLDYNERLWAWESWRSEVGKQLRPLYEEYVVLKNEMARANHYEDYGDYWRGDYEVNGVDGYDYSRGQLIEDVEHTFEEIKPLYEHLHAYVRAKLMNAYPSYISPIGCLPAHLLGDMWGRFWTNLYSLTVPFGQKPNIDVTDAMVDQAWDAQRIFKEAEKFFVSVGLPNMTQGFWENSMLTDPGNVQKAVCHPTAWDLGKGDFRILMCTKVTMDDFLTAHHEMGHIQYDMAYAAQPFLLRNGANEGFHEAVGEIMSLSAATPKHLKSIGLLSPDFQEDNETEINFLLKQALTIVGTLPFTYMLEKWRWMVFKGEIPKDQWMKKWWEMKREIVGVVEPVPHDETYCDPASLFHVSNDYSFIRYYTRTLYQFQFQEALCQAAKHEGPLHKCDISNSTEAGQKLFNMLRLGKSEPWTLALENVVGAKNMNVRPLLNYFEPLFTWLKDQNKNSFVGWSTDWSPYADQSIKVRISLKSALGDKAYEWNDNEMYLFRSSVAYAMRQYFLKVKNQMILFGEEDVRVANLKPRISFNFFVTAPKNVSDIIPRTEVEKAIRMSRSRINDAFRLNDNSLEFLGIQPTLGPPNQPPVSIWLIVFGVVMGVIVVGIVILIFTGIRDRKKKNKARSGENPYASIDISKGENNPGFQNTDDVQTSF

| Substance | binding affinity towards the ACE2 receptor | Kd (binding to ACE2, estimated) [µM] |
| --- | --- | --- |
| YKYNYL (Potential alternative synthetic hexapeptide variant) [alternative synthetic hexapeptide variant from simulation] | even stronger binding affinity | – |
| YKYRYL | – | 46 |
| YKYNYI (Potential alternative synthetic hexapeptide variant) [alternative synthetic hexapeptide variant from simulation] | even stronger binding affinity | – |
